{"source": "the DeepSol protein solubility set", "data": [{"assay": "soluble on expression in E. coli; label from the status in PepcDB or PDB records", "values": [{"sequence": "VKDISMENLKKIFLGEVTNWKELGGKDQKIVILNRAAGSGTRATFEKWVLGDKTAIRAQEQDSSGMVRSIVSDTPGAISYTAFSYVTDEVATLSIDGVQPTDENVMNNKWIIWSYEHMYTRKNP", "soluble on expression in E. coli": "not soluble"}, {"sequence": "VKRFWENVGKPNDTTDGRGTTSLAMTPISQTPGLLAEAMVDLGAIEHNVRVLREHAGHAQLMAVVKADGYGHGATRVAQTALGAGAAELGVATVDEALALRADGITAPVLAWLHPPGIDFGPALLADVQVAVSSLRQLDELLHAVRRTGRTATVTVKVDTGLNRNGVGPAQFPAMLTALRQAMAEDAVRLRGLMSHMVYADKPDDSINDVQAQRFTAFLAQAREQGVRFEVAHLSNSSATMARPDLTFDLVRPGIAVYGLSPVPALGDMGLVPAMTVKCAVALVKSIRAGEGVSYGHTWIAPRDTNLALLPIGYADGVFRSLGGRLEVLINGRRCPGVGRICMDQFMVDLGPGPLDVAEGDEAILFGPGIRGEPTAQDWADLVGTIHYEVVTSPRGRITRTYREAENR", "soluble on expression in E. coli": "soluble"}, {"sequence": "VLDPLGPGAPVLVAGGRVTGQAVAAVLTRFGATPTVCDDDPVMLRPHAERGLPTVSSSDAVQQITGYALVVASPGFSPATPLLAAAAAAGVPIWGDVELAWRLDAAGCYGPPRSWLVVTGTNGKTTTTSMLHAMLIAGGRRAVLCGNIGSAVLDVLDEPAELLAVELSSFQLHWAPSLRPEAGAVLNIAEDHLDWHATMAEYTAAKARVLTGGVAVAGLDDSRAAALLDGSPAQVRVGFRLGEPAARELGVRDAHLVDRAFSDDLTLLPVASIPVPGPVGVLDALAAAALARSVGVPAGAIADAVTSFRVGRHRAEVVAVADGITYVDDSKATNPHAARASVLAYPRVVWIAGGLLKGASLHAEVAAMASRLVGAVLIGRDRAAVAEALSRHAPDVPVVQVVAGEDTGMPATVEVPVACVLDVAKDDKAGETVGAAVMTAAVAAARRMAQPGDTVLLAPAGASFDQFTGYADRGEAFATAVRAVIR", "soluble on expression in E. coli": "not soluble"}, {"sequence": "VLDVDTARRRIVDLTDAVRAFCTAHDDGLCNVFVPHATAGVAIIETGAGSDEDLVDTLVRLLPRDDRYRHAHGSYGHGADHLLPAFVAPSVTVPVSGGQPLLGTWQSIVLVDLNQDNPRRSVRLSFVEG", "soluble on expression in E. coli": "not soluble"}, {"sequence": "VNIKTNPFKAVSFVESAIKKALDNAGYLIAEIKYDGVRGNICVDNTANSYWLSRVSKTIPALEHLNGFDVRWKRLLNDDRCFYKDGFMLDGELMVKGVDFNTGSGLLRTKWTDTKNQEFHEELFVEPIRKKDKVPFKLHTGHLHIKLYAILPLHIVESGEDCDVMTLLMQEHVKNMLPLLQEYFPEIEWQAAESYEVYDMVELQQLYEQKRAEGHEGLIVKDPMCIYKRGKKSGWWKMKPENEADGIIQGLVWGTKGLANEGKVIGFEVLLESGRLVNATNISRALMDEFTETVKEATLSQWGFFSPYGIGDNDACTINPYDGWACQISYMEETPDGSLRHPSFVMFR", "soluble on expression in E. coli": "soluble"}, {"sequence": "VPKVTFTVEKGSNEKHLAVLVKYEGDTMAEVELREHGSDEWVAMTKGEGGVWTFDSEEPLQGPFNFRFLTEKGMKNVFDDVVPEKYTIGATYAPEE", "soluble on expression in E. coli": "soluble"}, {"sequence": "VRVLSYDKEKLNWLYKDPQGLVQGPFSLTQLKAWSDAEYFTKQFRVWMTGESMESAVLLTDVLRL", "soluble on expression in E. coli": "soluble"}, {"sequence": "VSIAQAQVVVSSKIDTEGGVLGNIILAVLNQNKIETTDRIQLGATPVVRKAITAGEIDIYPEYTGNAAFFFSKADDPLWKDAAKGYEEAKTLDYDANKIVWLAPSPANNTWAIALRKDVADKNNLKTLSDFGKYVAGGGTVVLAASSEFVNSAAALPAFQTTYGFTMKPDQLITLSGGDTAATIAAAANQTNNANAAMVYGTDGGIAPSGLVVLEDDKHVQPVYQPAPIIREEVLKKHPNIEELLKPVFEKLDLATLQDLNARVQVGGEQAKTVAMDFLTKNGFAK", "soluble on expression in E. coli": "soluble"}, {"sequence": "VSLDKKLMPVPDGHPDVFDREWPLRVGDIDRAGRLRLDAACRHIQDIGQDQLREMGFEETHPLWIVRRTMVDLIRPIEFGDMLRCRRWCSGTSNRWCEMRVRVDGRKGGLIESEAFWIHVNRETEMPARIADDFLAGLHRTTSVDRLRWKGYLKPGSRDDASEIHEFPVRVTDIDLFDHMNNAVYWSVIEDYLASHAELLRGPLRVTIEHEAPVALGDKLEIISHVHPAGSTEIFGPGLVDRAVTTLTYVVGDEPKAVASLFNL", "soluble on expression in E. coli": "soluble"}, {"sequence": "VSQLFEEKAKAVNELPTKPSTDELLELYALYKQATVGDNDKEKPGIFNMKDRYKWEAWENLKGKSQEDAEKEYIALVDQLIAKYSS", "soluble on expression in E. coli": "soluble"}, {"sequence": "VTAVPTDSAEKPAVADAGVRSVTRVIDLLELFDAAHPTRSLKELVEGTKLPKTTVVRLVATMCARSVLTSRADGSYSLGPEMLRWVRLAGRTWAPPEEVVDIMRQLSADTGETVNLYIRQGLSRVVVAQCESTATVRSVIPLGVPYPLWAGAAGKILLLAAPELIDDVAADSPHGPEFADQLREKVEDGRERGYQLVHGERELGSSGLSFPLVDSHGTVVAALTLGGPTGRFTEDRTPHYIECTRAAAEEISAIGLPGLD", "soluble on expression in E. coli": "soluble"}, {"sequence": "VTLSLTKDNFDDVVNNADIILVEFYAPWCGHCKKLAPEYEKAAKELSKRSPPIPLAKVDATEQTDLAKRFDVSGYPTLKIFRKGRPFDYNGPREKYGIVDYMIEQSG", "soluble on expression in E. coli": "soluble"}, {"sequence": "VTWKGSGQETVGAEPTLWAISDLHTGHLGNKPVAESLYPSSPDDWLIVAGDVAERTDEIRWSLDLLRRRFAKVIWVPGNHELWTTNRDPMQIFGRARYDYLVNMCDEMGVVTPEHPFPVWTERGGPATIVPMFLLYDYSFLPEGANSKAEGVAIAKERNVVATDEFLLSPEPYPTRDAWCHERVAATRARLEQLDWMQPTVLVNHFPLLRQPCDALFYPEFSLWCGTTKTADWHTRYNAVCSVYGHLHIPRTTWYDGVRFEEVSVGYPREWRRRKPYSWLRQVLPDPQYAPGYLNDFGGHFVITPEMRTQAAQFRERLRQRQSR", "soluble on expression in E. coli": "not soluble"}, {"sequence": "WFDTLNCHRLSDYQVGRAADIRLPEGCAFSDGIGSAFALEEAPPFSGRPDMPTAADFLALAAKGGYPAVHAAHAGLLYVRNKIALTAKEQAERRARP", "soluble on expression in E. coli": "not soluble"}, {"sequence": "WGTIPGQNFIYAHLNRVIKKYDLDMIYVSGPGHGGQVMVSNSYLDGTYSEVYPNVSRDLNGLKKLCKQFSFPGGISSHMAPETPGSINEGGELGYSLAHSFGAVFDNPDLITACVVGDGEAETGPLATSWQANKFLNPVTDGAVLPILHLNGYKISNPTVLSRIPKDELEKFFEGNGWKPYFVEGEDPETMHKLMAETLDIVTEEILNIQKNARENNDCSRPKWPMIVLRTPKGWTGPKFVDGVPNEGSFRAHQVPLAVDRYHTENLDQLEEWLKSYKPEELFDENYRLIPELEELTPKGNKRMAANLH", "soluble on expression in E. coli": "not soluble"}, {"sequence": "WLRDVLDSEAFRHTQATLPMALGKDISGQPIVVDMAKMPHLLVAGQTGGGKSVGINTMILSLLFKLTPEQVRFIMIDPKVVELSVYNDIPHLLTPVVTDMKKAANALRWAVGEMERRYLLISHLQVRNIEGYNDKIDQASAMNFPIPDPTWRPADSIGQLPPPLTKLSYIVLIVDEFADLIMSAGKEVEEYIMRIAQKARAVGIHLILATQRPST", "soluble on expression in E. coli": "not soluble"}, {"sequence": "WQENMLIPMMAINEDNLWVHQKYGYAIPRRNGKTEVVYILELWALHKGLKILHTAHRISTSHSSFEKVKKYLEMSGYVDGEDFISNKAKGQERIEFKSSGSVIQFRTRTSNGGLGEGFDLLIIDEAQEYTAEQESALKYTVTDSDNPMTIMCGTPPTMVSTGTVFESYRKECLKGDRRYSGWAEWSVDEMQPIHDVKSWYVANPSMGYHLNERKIEAELGEDEIDHNIQRLGYWPSFNQKSVISEKEWAKLKVEQVPELKSKLFVGIKFGQDGNNVSLSIAARASENKVFVEAIDCLSVRNGTQWIINFLKSADIAKVVVDGASGQELLAQEMREHGLKKPELPKVAEIITANTMWEQGIMQETICHNDQPSLTAVVTNCEKRQIGSNGGFGYKSLYDDRDISLMDSALLAHWICYTTKPKRKQRTSC", "soluble on expression in E. coli": "not soluble"}, {"sequence": "WSKIEKEQFYIAICAMNKTIAQKLFVLMKKAKKWLLQPDVRELKRFSIIDQKQLIYSYLIYHKINVNGEKIDAILDFIQPSQQKQYRLQNDIFLMVKNQCLALLYK", "soluble on expression in E. coli": "soluble"}, {"sequence": "YCICNQVSYGEMVGCDNQDCPIEWFHYGCVGLTEAPKGKWYCPQCTAAMKRRGSRHK", "soluble on expression in E. coli": "soluble"}, {"sequence": "YEFKKRNNIPMFFGIGNVTELFDVDSNGVNASIAAIGQEIGGNILFTPEASKKCKFSIKELKTASKMLFLAKKRNSLPKDVGYDLINYKDKKFDEEFELEDVKIIEAFENEKQLLDRGSFKIRVDRKNKEINATYYVHNQPKLIIRGNDPKKIYETALRENLITKMDHAAYFGKELRNAELALKLGKKYNQDFELFYNEFWN", "soluble on expression in E. coli": "not soluble"}, {"sequence": "YETQSREKQTRQQHEHMLMIVSNLYEETVHLKKTLKTTEKVTNDSYQLYREMKGKDVQLSGRILRLAGEIHEVKKDNQRIFAGLSKLISNESLRDYMRASDLLQLVIRMNEKYAEALGKQIDFYCSIEGEHDEYHVFIVLSIINNLTANAVEAMDEEGMVSLRLRKPNESMVEFQVEDNGPGISEKIGDIVFDPGFTSKYDEFGTPSTGIGLSYVKEIVTELEGDITFDNQQRGVVFAIRLPVRHLIQKG", "soluble on expression in E. coli": "not soluble"}, {"sequence": "YLDLWQTQDAKIRAKLAAVFQAEQNLNEAAIAYCLARALPEETAIFFANSMVVRYAEFFWQLNDQQILPYFNRGANGIDGTLSTALGIAENHSPAVLLTGDLALLHDINGFLTLSKFTGSLTIIVINNQGGGIFEMLPIAEEKDIFEDYFATPQTVEFSKVCDLYGIEYQAIQTKADLMQTCAILPPRGVRLLEVKTNRNQAMTWLKDLFQ", "soluble on expression in E. coli": "not soluble"}, {"sequence": "YPMVNNYLEMGHGLYVVEIHVKSNLHDTPLSKLISRGSYNIQPILVKREEAVYTNINDEFVLNEFDTLLLCGSRAELKYVAPRLV", "soluble on expression in E. coli": "not soluble"}, {"sequence": "YPNVEVFGEVPIQVVNAEPLGMHSNVMEAMFTAITRAKKNVYIETPYFIPTECLLQAIQTASMSGIDVRLVMPKRSDNDFVQYASNSYVEKLLRNKVRVYQYVNGFTHSKLMIVDDELVVVGSANMDIRSLELLFETNLFIYDKKVAQTVRDIYHTDMNNSKELNLRDWLQR", "soluble on expression in E. coli": "not soluble"}, {"sequence": "YRFSDFEMGLLQTHAEMAERMVNEIGGEHLEIRVLAEITELLQERNEELSPFLTRVLSMATELIGADTGSIAIVQERDGEKWLVVEDEEGTIVGAKNKSWLKKYIPPFRIGGHELPAEERSLTGYVAWSKQPKIIAHVADEQGGEGFHRSMHELIKSEIAVPIVCDDEVIAVVCLNSLKPAWFTEEHKRILQIIDRLTSRHISDVQRIERLEGEVTRLKTDVAYKDPQISSYR", "soluble on expression in E. coli": "not soluble"}, {"sequence": "YSLAVGGSSPFAEELMQELALTTEQLQVRAQEVLTEILNDYSSLRVKTIDSFFQEVMRAFSHELGLPGGFRIEMEQKAVLEQAVVRLLHSLGEKDTSDVENWIRRLAEDLIEEGRGHNIRREIVSLGDELFKEQLLLLSEEGKLPTKAAIHRYQTEMNKLMEGFEQRRLSIARRAEEIVATAGISFYDFKGGTKGGILEFAKVLKGGEVKPPTKTFMAMAEGDPETTLYAKTTPATTQAAILSAYQSGLKECLTEMATLYLGREWQEYSTAKQSLPFLNRLGIISDLWRQIEGIRQEENKMLISDAPSLLHRIIDGSETPFVYDK", "soluble on expression in E. coli": "not soluble"}]}]}
